In patent publication US20220177587A1, “METHODS AND USES OF VARIANT CD80 FUSION PROTEINS AND RELATED CONSTRUCTS” (Alpine Immune Sciences, Inc., priority 2018, published 2022):
Numbering of substitutions follows the chain as printed. Names and notes keep the numbering of the source.

B1: variant CD80 IgV-Fc (inert) H18C/A26P/E35D/M47L/V68M/A71G (Fc fusion)
chain: VIHVTKEVKEVATLSCGCNVSVEELPQTRIYWQKDKKMVLTMMSGDLNIWPEYKNRTIFDITNNLSIMILGLRPSDEGTYECVVLKYEKDAFKREHLAEVTLSVKAD
B2: variant CD80 IgV-Fc (inert) H18V/A26K/E35D/M47L/V68M/A71G (Fc fusion)
chain: B1 chain with C18V, P26K
B3: variant CD80 IgV-Fc (inert) H18Y/A26P/E35D/M47I/V68M/A71G (Fc fusion)
chain: B1 chain with C18Y, L47I
B4: variant CD80 IgV-Fc (inert) H18I/A26P/E35D/M47V/V68M/A71G (Fc fusion)
chain: B1 chain with C18I, L47V
B5: variant CD80 IgV-Fc (inert) H18V/E35D/M47V/V68M/A71G/D90G (Fc fusion)
chain: B1 chain with C18V, P26A, L47V, D90G
B6: variant CD80 IgV-Fc (inert) H18T/A26N/E35D/M47L/V68M/A71G (Fc fusion)
chain: B1 chain with C18T, P26N
B7: variant CD80 IgV-Fc (inert) H18Y/E35D/M47V/V68M/A71G (Fc fusion)
chain: B1 chain with C18Y, P26A, L47V
B8: variant CD80 IgV-Fc E35D/M47L (Fc fusion)
chain: B1 chain with C18H, P26A, M68V, G71A
B9: variant CD80 IgV-Fc E35D/M47V/N48K/V68M (Fc fusion)
chain: B1 chain with C18H, P26A, L47V, N48K, G71A
B10: variant CD80 IgV-Fc E35D/M47V/V68M/K89N (Fc fusion)
chain: B1 chain with C18H, P26A, L47V, G71A, K89N
B11: variant CD80 IgV-Fc E35D/D46V/L85Q (Fc fusion)
chain: B1 chain with C18H, P26A, D46V, L47M, M68V, G71A, L85Q
B12: variant CD80 IgV-Fc E35D/M47V/N48K (Fc fusion)
chain: B1 chain with C18H, P26A, L47V, N48K, M68V, G71A
B13: CD80 K36G/K37Q/M38I/L40M ECD-Fc (Fc fusion)
chain: VIHVTKEVKEVATLSCGHNVSVEELAQTRIYWQKEGQIVMTMMSGDMNIWPEYKNRTIFDITNNLSIVILALRPSDEGTYECVVLKYEKDAFKREHLAEVTLSVKADFPTPSISDFEIPTSNIRRIICSTSGGFPEPHLSWLENGEELNAINTTVSQDPETELYAVSSKLDFNMTTNHSFMCLIKYGHLRVNQTFNWNTTKQEHFPDN
B14: CD80 A12V/S15F/Y31H/M38L/T41G/M43L/D90N/T130A/P137L/N149D/N152T ECD-Fc (Fc fusion)
chain: VIHVTKEVKEVVTLFCGHNVSVEELAQTRIHWQKEKKLVLGMLSGDMNIWPEYKNRTIFDITNNLSIVILALRPSDEGTYECVVLKYEKNAFKREHLAEVTLSVKADFPTPSISDFEIPTSNIRRIICSASGGFPELHLSWLENGEELDAITTTVSQDPETELYAVSSKLDFNMTTNHSFMCLIKYGHLRVNQTFNWNTTKQEHFPDN
B15: CD80 V4M/L70Q/A91G/I118V/T120S/T130A/K169E ECD-Fc (Fc fusion)
chain: VIHMTKEVKEVATLSCGHNVSVEELAQTRIYWQKEKKMVLTMMSGDMNIWPEYKNRTIFDITNNLSIVIQALRPSDEGTYECVVLKYEKDGFKREHLAEVTLSVKADFPTPSISDFEVPSSNIRRIICSASGGFPEPHLSWLENGEELNAINTTVSQDPETELYAVSSELDFNMTTNHSFMCLIKYGHLRVNQTFNWNTTKQEHFPDN
B16: CD80 I67F/L70R/E88G/A91G/I118V/T120S/T130A ECD-Fc (Fc fusion)
chain: B15 chain with M4V, I67F, Q70R, E88G, E169K
B17: CD80 L70Q/A91G/T110A/I118V/T120S/T130A ECD-Fc (Fc fusion)
chain: B15 chain with M4V, T110A, E169K
B18: CD80 I67T/L70Q/A91G/I118V/T120S ECD-Fc (Fc fusion)
chain: B15 chain with M4V, I67T, A130T, E169K, N196H
B19: CD80 K37E/F59S/L70Q/A91G/T120S/T130A ECD-Fc (SEQ ID NO 1397) (Fc fusion)
chain: B15 chain with M4V, K37E, F59S, E169K, K185E
B20: CD80 A91G/S103P ECD-Fc (Fc fusion)
chain: B13 chain with G36K, Q37K, I38M, M40L, A91G, S103P
B21: CD80 S44P/L70Q/A91G/T130A ECD-Fc (Fc fusion)
chain: B15 chain with M4V, S44P, V118I, S120T, E169K
B22: CD80 A91G/F92L/F108L/I118V/T120S ECD-Fc (Fc fusion)
chain: B15 chain with M4V, Q70L, F92L, F108L, A130T, E169K
B23: CD80 V22A/L70Q/S121P ECD-Fc (Fc fusion)
chain: B13 chain with V22A, G36K, Q37K, I38M, M40L, L70Q, S121P
B24: CD80 A91G/L102S ECD-Fc (Fc fusion)
chain: B13 chain with G36K, Q37K, I38M, M40L, A91G, L102S
B25: CD80 R29V/M43Q/E81R/L85I/K89R/D90L/A91E/F92N/K93Q/R94G ECD-Fc (Fc fusion)
chain: VIHVTKEVKEVATLSCGHNVSVEELAQTVIYWQKEKKMVLTMQSGDMNIWPEYKNRTIFDITNNLSIVILALRPSDEGTYRCVVIKYERLENQGEHLAEVTLSVKADFPTPSISDFEIPTSNIRRIICSTSGGFPEPHLSWLENGEELNAINTTVSQDPETELYAVSSKLDFNMTTNHSFMCLIKYGHLRVNQTFNWNTTKQEHFPDN
B26: CD80 E24G/R29D/Y31L/Q33H/K36G/M38I/T41A/M43R/M47T/F59L/E81V/L85R/K89N/A91T/F92P/K93V/R94L/H96R/N149S/C182S ECD-Fc (Fc fusion)
chain: VIHVTKEVKEVATLSCGHNVSVEGLAQTDILWHKEGKIVLAMRSGDTNIWPEYKNRTILDITNNLSIVILALRPSDEGTYVCVVRKYENDTPVLERLAEVTLSVKADFPTPSISDFEIPTSNIRRIICSTSGGFPEPHLSWLENGEELSAINTTVSQDPETELYAVSSKLDFNMTTNHSFMSLIKYGHLRVNQTFNWNTTKQEHFPDN
B27: variant CD80 IgV-Fc E35D/N48K/V68M (Fc fusion)
chain: B1 chain with C18H, P26A, L47M, N48K, G71A

The binders below were run against CD28 (human) (UniProt P10747) (assay: flow cytometry, Jurkat cells (CD28)).

| Binder | MFI at 33.3 nM [MFI] |
| --- | --- |
| B1 | 1910 |
| B2 | 3640 |
| B3 | 5120 |
| B4 | 2570 |
| B5 | 2120 |
| B6 | 1370 |
| B7 | 3230 |

These binders were tested against CD28 (human) (UniProt P10747) (assay: flow cytometry, Jurkat cells (CD28); MFI over CD80 WT IgV-Fc).

| Binder | Fold change to WT CD80 [fold] |
| --- | --- |
| B1 | 18.7 |
| B2 | 35.7 |
| B3 | 50.2 |
| B4 | 25.2 |
| B5 | 20.7 |
| B6 | 13.4 |
| B7 | 31.6 |

These binders were tested against human PD-L1 (human) (UniProt Q9NZQ7) (assay: flow cytometry, CHO cells expressing huPD-L1).
Chain of human PD-L1 (human) (Q9NZQ7 19-290): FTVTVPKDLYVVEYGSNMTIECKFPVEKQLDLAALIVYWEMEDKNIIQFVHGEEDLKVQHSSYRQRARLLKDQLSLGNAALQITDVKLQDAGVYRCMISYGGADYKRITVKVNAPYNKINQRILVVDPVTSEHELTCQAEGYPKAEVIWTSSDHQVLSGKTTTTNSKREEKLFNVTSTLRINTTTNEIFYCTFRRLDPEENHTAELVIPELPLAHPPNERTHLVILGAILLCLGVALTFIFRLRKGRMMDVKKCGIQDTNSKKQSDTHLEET

| Binder | MFI at 33.3 nM [MFI] |
| --- | --- |
| B8 | 7530 |
| B9 | 23500 |
| B10 | 21800 |
| B11 | 4040 |
| B12 | 4850 |

Each binder was assayed against human PD-L1 (human) (UniProt Q9NZQ7) (assay: flow cytometry, Expi293F cells transfected with PD-L1).

| Binder | MFI [MFI] | parental ratio |
| --- | --- | --- |
| B13 | 959 | 0.05 |
| B14 | 5 | 0.08 |
| B15 | 6 | 0.09 |
| B16 | 6 | 0.08 |
| B17 | 5 | 0.07 |
| B18 | 5 | 0.08 |
| B19 | 6 | 0.08 |
| B20 | 9 | 0.13 |
| B21 | 5 | 0.07 |
| B22 | 16 | 0.11 |
| B23 | 5 | 0.07 |
| B24 | 5 | 0.08 |
| B25 | 1580 | 0.09 |
| B26 | 1120 | 0.06 |

Each binder was assayed against human PD-L1 (human) (UniProt Q9NZQ7) (assay: flow cytometry, CHO/PD-L1 cells; MFI over CD80 WT IgV-Fc).

| Binder | Fold change to WT CD80 [fold] |
| --- | --- |
| B1 | 406 |
| B2 | 408 |
| B3 | 330 |
| B4 | 393 |
| B5 | 264 |
| B6 | 415 |
| B7 | 393 |

What follows are binders tested against human CTLA-4 (human) (UniProt P16410) (assay: flow cytometry, Expi293F cells transfected with CTLA-4).
Chain of human CTLA-4 (human) (P16410 36-223): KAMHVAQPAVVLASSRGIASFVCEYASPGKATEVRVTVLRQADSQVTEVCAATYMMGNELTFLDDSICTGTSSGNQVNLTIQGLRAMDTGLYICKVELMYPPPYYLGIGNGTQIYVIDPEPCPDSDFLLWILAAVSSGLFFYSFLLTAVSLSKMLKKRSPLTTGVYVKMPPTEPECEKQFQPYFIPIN

| Binder | MFI [MFI] | parental ratio |
| --- | --- | --- |
| B13 | 1400 | 0.03 |
| B14 | 6 | 0.03 |
| B15 | 263 | 1.26 |
| B16 | 6 | 0.03 |
| B17 | 14 | 0.07 |
| B18 | 160 | 0.77 |
| B19 | 74 | 0.36 |
| B21 | 134 | 0.64 |
| B22 | 128 | 0.61 |
| B23 | 7 | 0.04 |
| B24 | 6 | 0.03 |
| B25 | 996 | 0.02 |
| B26 | 1020 | 0.02 |

Each binder was assayed against human CTLA-4 (human) (UniProt P16410) (assay: flow cytometry, CHO cells expressing huCTLA-4).

| Binder | MFI at 33.3 nM [MFI] |
| --- | --- |
| B8 | 48000 |
| B27 | 33600 |
| B9 | 32900 |
| B10 | 29500 |
| B11 | 48000 |
| B12 | 47400 |

Each binder was assayed against human PD-L1 (human) (UniProt Q9NZQ7) (assay: flow cytometry, CHO cells stably expressing PD-L1).

| Binder | MFI at 33.3 nM [MFI] |
| --- | --- |
| B1 | 67000 |
| B2 | 67300 |
| B3 | 54500 |
| B4 | 64900 |
| B5 | 43600 |
| B6 | 68500 |
| B7 | 64900 |

Each binder was assayed against CD28 (human) (UniProt P10747) (assay: flow cytometry, Expi293F cells transfected with CD28).

| Binder | MFI [MFI] | parental ratio |
| --- | --- | --- |
| B13 | 1170 | 0.09 |
| B14 | 6 | 0.06 |
| B15 | 89 | 0.94 |
| B16 | 5 | 0.05 |
| B17 | 8 | 0.09 |
| B18 | 98 | 1.03 |
| B19 | 20 | 0.21 |
| B20 | 39 | 0.41 |
| B21 | 88 | 0.92 |
| B22 | 50 | 0.53 |
| B23 | 5 | 0.06 |
| B24 | 6 | 0.06 |
| B25 | 1030 | 0.08 |
| B26 | 1070 | 0.08 |

What follows are binders tested against CD28 (human) (UniProt P10747) (assay: flow cytometry, Jurkat/IL2 reporter cells (CD28)).

| Binder | MFI at 33.3 nM [MFI] |
| --- | --- |
| B8 | 411 |
| B27 | 642 |
| B11 | 196 |

Each binder was assayed against human CTLA-4 (human) (UniProt P16410) (assay: flow cytometry, CHO/CTLA4 cells; MFI over CD80 WT IgV-Fc).

| Binder | Fold change to WT CD80 [fold] |
| --- | --- |
| B1 | 16.9 |
| B2 | 16.6 |
| B3 | 8.8 |
| B4 | 15.8 |
| B5 | 12.1 |
| B6 | 15.1 |
| B7 | 17.1 |

What follows are binders tested against human CTLA-4 (human) (UniProt P16410) (assay: flow cytometry, CHO cells stably expressing CTLA4).

| Binder | MFI at 33.3 nM [MFI] |
| --- | --- |
| B1 | 23400 |
| B2 | 22900 |
| B3 | 12200 |
| B4 | 21900 |
| B5 | 16800 |
| B6 | 20900 |
| B7 | 23600 |
